Legend:
[1] = molecular target: HIV-1 Env of isolate MG RM-D-008 (HIV-1); assay: cell-based or functional assay
[2] = molecular target: HIV-1 Env of isolate 94UG103 (subtype A) (HIV-1); assay: cell-based or functional assay
[3] = molecular target: HIV-1 Env of isolate 92WR026 (subtype A) (HIV-1); assay: cell-based or functional assay
[4] = molecular target: HIV-1 Env of isolate 92WR020 (subtype A) (HIV-1); assay: cell-based or functional assay
[5] = molecular target: HIV-1 Env of isolate 93UG077 (subtype A) (HIV-1); assay: cell-based or functional assay
[6] = molecular target: HIV-1 Env of isolate 92WR021 (subtype A) (HIV-1); assay: cell-based or functional assay
[7] = molecular target: HIV-1 envelope glycoprotein (Env) of isolate JR-FL (HIV-1); assay: cell-based or functional assay
[8] = molecular target: HIV-1 Env of isolate 92UG031 (subtype A) (HIV-1); assay: cell-based or functional assay
[9] = molecular target: HIV-1 envelope glycoprotein (Env) of isolate MGRM-Chronic-B-004 (HIV-1); assay: cell-based or functional assay
[10] = molecular target: HIV-1 envelope glycoprotein (Env) of isolate MGRM-Chronic-B-008 (HIV-1); assay: cell-based or functional assay
[11] = molecular target: HIV-1 Env of isolate 92RW008 (subtype A) (HIV-1); assay: cell-based or functional assay
[12] = molecular target: HIV-1 Env of isolate 92WR024 (subtype A) (HIV-1); assay: cell-based or functional assay
[13] = molecular target: HIV-1 envelope glycoprotein (Env) of isolate MGRM-Chronic-B-001 (HIV-1); assay: cell-based or functional assay
[14] = molecular target: HIV-1 envelope glycoprotein (Env) of isolate MGRM-Chronic-B-003 (HIV-1); assay: cell-based or functional assay
[15] = molecular target: HIV-1 envelope glycoprotein (Env) of isolate MGRM-Chronic-B-002 (HIV-1); assay: cell-based or functional assay
[16] = molecular target: HIV-1 envelope glycoprotein (Env) of isolate APV_6 (HIV-1); assay: cell-based or functional assay
[17] = molecular target: HIV-1 envelope glycoprotein (Env) of isolate 6535.3 (HIV-1); assay: cell-based or functional assay
[18] = molecular target: HIV-1 Env of isolate 92WR009 (subtype A) (HIV-1); assay: cell-based or functional assay
[19] = molecular target: HIV-1 envelope glycoprotein (Env) of isolate 93TH305 (HIV-1); assay: cell-based or functional assay
[20] = molecular target: HIV-1 envelope glycoprotein (Env) of isolate APV_17 (HIV-1); assay: cell-based or functional assay
[21] = molecular target: HIV-1 Env of isolate 94 KE 105 (subtype AC) (HIV-1); assay: cell-based or functional assay
[22] = molecular target: HIV-1 Env of isolate 92UG037 (subtype A) (HIV-1); assay: cell-based or functional assay
[23] = molecular target: HIV-1 envelope glycoprotein (Env) of isolate APV_13 (HIV-1); assay: cell-based or functional assay
[24] = molecular target: HIV-1 envelope glycoprotein (Env) of isolate CAAN.A2 (HIV-1); assay: cell-based or functional assay
[25] = molecular target: HIV-1 Env of isolate LAVIC_18 (HIV-1); assay: cell-based or functional assay
[26] = molecular target: HIV-1 Env of pseudovirus 92TH021 (clade CRF01_AE) (HIV-1); assay: cell-based or functional assay
[27] = molecular target: HIV-1 Env of pseudovirus MGRM-F1-013 (HIV-1); assay: cell-based or functional assay
[28] = molecular target: HIV-1 Env of isolate APV_17, clade B, on pseudovirus (HIV-1); assay: cell-based or functional assay
[29] = molecular target: HIV-1 Env of pseudovirus MGRM-G-015 (HIV-1, clade G isolate MGRM-G-015); assay: cell-based or functional assay
[30] = molecular target: HIV-1 Env of isolate 93IN905 (subtype C pseudovirus) (HIV-1); assay: cell-based or functional assay
[31] = molecular target: HIV-1 Env of isolate MGRM-Chronic-B-020 (subtype B pseudovirus) (HIV-1); assay: cell-based or functional assay
[32] = molecular target: HIV-1 Env of isolate MGRM-D-008 (pseudovirus) (HIV-1); assay: cell-based or functional assay
[33] = molecular target: JR-FL gp120 ΔV1/ΔV2 (HIV-1); assay: ELISA, antigen-coated wells
[34] = molecular target: HIV-1 92TH021 Env on pseudotyped virus (HIV-1 isolate 92TH021); assay: cell-based or functional assay
[35] = molecular target: HIV-1 93IN905 Env on pseudotyped virus (HIV-1 isolate 93IN905); assay: cell-based or functional assay
[36] = molecular target: HIV-1 NL43 Env on pseudotyped virus (HIV-1 NL43); assay: cell-based or functional assay
[37] = molecular target: HIV-1 94UG103 Env on pseudotyped virus (HIV-1 isolate 94UG103); assay: cell-based or functional assay
[38] = molecular target: HIV-1 JR-CSF Env on pseudotyped virus (HIV-1 isolate JR-CSF) (UniProt P20871); assay: cell-based or functional assay

Sequence of 4993_K13 (PGT-141) (antibody) (VH): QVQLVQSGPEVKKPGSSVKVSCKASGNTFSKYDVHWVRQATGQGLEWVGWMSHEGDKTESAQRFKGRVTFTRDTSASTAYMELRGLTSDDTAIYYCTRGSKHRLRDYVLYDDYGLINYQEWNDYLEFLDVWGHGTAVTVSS
Sequence of 4993_K13 (PGT-141) (antibody) (VL): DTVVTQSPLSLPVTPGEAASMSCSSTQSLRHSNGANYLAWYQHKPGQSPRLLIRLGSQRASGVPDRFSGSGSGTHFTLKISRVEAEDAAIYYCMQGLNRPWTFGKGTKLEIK
Sequence of 4980_N08 (PGT-143) (antibody) (VH): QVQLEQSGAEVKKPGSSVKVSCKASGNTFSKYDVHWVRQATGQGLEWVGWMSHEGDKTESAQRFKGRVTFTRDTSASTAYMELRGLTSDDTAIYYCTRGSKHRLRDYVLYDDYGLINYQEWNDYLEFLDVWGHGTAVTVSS
Sequence of 4980_N08 (PGT-143) (antibody) (VL): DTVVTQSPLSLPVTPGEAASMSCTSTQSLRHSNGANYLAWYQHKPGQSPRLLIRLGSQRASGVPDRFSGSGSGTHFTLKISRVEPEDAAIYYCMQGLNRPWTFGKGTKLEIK
Sequence of 4970_K22 (PGT-144) (antibody) (VH): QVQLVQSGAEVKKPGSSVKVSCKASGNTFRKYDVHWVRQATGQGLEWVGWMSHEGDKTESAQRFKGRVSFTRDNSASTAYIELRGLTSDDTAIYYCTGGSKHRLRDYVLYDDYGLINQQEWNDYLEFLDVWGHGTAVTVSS
Sequence of 4970_K22 (PGT-144) (antibody) (VL): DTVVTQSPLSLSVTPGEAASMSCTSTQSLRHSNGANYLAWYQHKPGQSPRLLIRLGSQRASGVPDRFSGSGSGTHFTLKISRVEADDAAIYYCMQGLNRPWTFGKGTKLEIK

| Substance | IC50 (µg/mL), pseudovirus neutralization [2] [µg/mL] | IC50 (µg/mL), pseudovirus neutralization [3] [µg/mL] | IC50 (µg/mL), pseudovirus neutralization [4] [µg/mL] | IC50 (µg/mL), pseudovirus neutralization [5] [µg/mL] | IC50 (µg/mL), pseudovirus neutralization [6] [µg/mL] | IC50 (µg/mL), pseudovirus neutralization [7] [µg/mL] | IC50 (µg/mL), pseudovirus neutralization [8] [µg/mL] | IC50 (µg/mL), pseudovirus neutralization [9] [µg/mL] | IC50 (µg/mL), pseudovirus neutralization [10] [µg/mL] | IC50 (µg/mL), pseudovirus neutralization [11] [µg/mL] | IC50 (µg/mL), pseudovirus neutralization [12] [µg/mL] | IC50 (µg/mL), pseudovirus neutralization [13] [µg/mL] | IC50 (µg/mL), pseudovirus neutralization [14] [µg/mL] | IC50 (µg/mL), pseudovirus neutralization [15] [µg/mL] | IC50 (µg/mL), pseudovirus neutralization [16] [µg/mL] | IC50 (µg/mL), pseudovirus neutralization [17] [µg/mL] | IC50 (µg/mL), pseudovirus neutralization [18] [µg/mL] | IC50 (µg/mL), pseudovirus neutralization [19] [µg/mL] | IC50 (µg/mL), pseudovirus neutralization [20] [µg/mL] | IC50 (µg/mL), pseudovirus neutralization [21] [µg/mL] | also measured |
| --- | --- | --- | --- | --- | --- | --- | --- | --- | --- | --- | --- | --- | --- | --- | --- | --- | --- | --- | --- | --- | --- |
| 5136_H01 (PGT-131) (antibody) | – | – | – | – | – | – | – | – | – | – | – | – | – | – | – | – | – | – | – | – | IC50 (µg/mL), pseudovirus neutralization [1]: > 50 µg/mL |
| 4980_N08 (PGT-143) (antibody) | > 50 | 5.36 | > 50 | > 50 | > 50 | > 50 | 0.095 | 0.395 | > 50 | 0.385 | 0.122 | > 50 | 0.854 | > 50 | 14 | > 50 | 0.01 | 17.3 | 1.11 | 0.368 | IC50 (µg/mL), pseudovirus neutralization [22]: 0.854 µg/mL; IC50 (µg/mL), pseudovirus neutralization [23]: > 50 µg/mL; IC50 (µg/mL), pseudovirus neutralization [24]: > 50 µg/mL |
| 2G12 (antibody) | – | – | – | – | – | – | – | – | – | – | – | – | – | – | – | – | – | – | – | – | IC50 [25]: > 50 mg/L; IC50 [26]: > 50 mg/L; IC50 (µg/ml), pseudovirus neutralization [27]: > 50 µg/mL; IC50 (µg/ml), pseudovirus neutralization [28]: > 50 µg/mL; IC50 (µg/ml), pseudovirus neutralization [29]: > 50 µg/mL |
| 4993_K13 (PGT-141) (antibody) | > 50 | 1.78 | > 50 | > 50 | > 50 | > 50 | 0.093 | 0.586 | > 50 | 0.579 | 0.175 | > 50 | 0.4 | > 50 | 14.2 | > 50 | 0.022 | > 50 | 0.59 | 0.204 | IC50 (µg/mL), pseudovirus neutralization [22]: 1.28 µg/mL; IC50 (µg/mL), pseudovirus neutralization [23]: > 50 µg/mL; IC50 (µg/mL), pseudovirus neutralization [24]: > 50 µg/mL |
| 4838_L06 (PGT-121) (antibody) | – | – | – | – | – | – | – | – | – | – | – | – | – | – | – | – | – | – | – | – | IC50 (µg/mL), pseudovirus neutralization [30]: 0.005 µg/mL; IC50 (µg/mL), pseudovirus neutralization [31]: 0.004 µg/mL; IC50, pseudovirus neutralization [32]: > 50 mg/L; EC50 [33]: 0.2 mg/L |
| 1496_C09 (PG9) (TCN-109) (antibody) | – | – | – | – | – | – | – | – | – | – | – | – | – | – | – | – | – | – | – | – | IC50 [25]: 0.1 mg/L; Neutralizing Antibody Assay: IC50; Virus/Ab Incubation 1 hour [34]: 0.0612 mg/L; Neutralizing Antibody Assay: IC50; Virus/Ab Incubation 18 hour [34]: 0.0571 mg/L; Neutralizing Antibody Assay: IC50; Virus/Ab Incubation 1 hour [35]: 0.144 mg/L; Neutralizing Antibody Assay: IC50; Virus/Ab Incubation 18 hour [35]: 0.0619 mg/L; Neutralizing Antibody Assay: IC50; Virus/Ab Incubation 1 hour [36]: 0.294 mg/L; Neutralizing Antibody Assay: IC50; Virus/Ab Incubation 18 hour [36]: 38 mg/L; IC50 [26]: 0.09 mg/L; IC50 (µg/ml), pseudovirus neutralization [27]: 0.56 µg/mL; IC50 (µg/ml), pseudovirus neutralization [28]: 14.6 µg/mL; Neutralizing Antibody Assay: IC50; Virus/Ab Incubation 1 hour [37]: 0.334 mg/L; Neutralizing Antibody Assay: IC50; Virus/Ab Incubation 18 hour [37]: 0.0942 mg/L; IC50 (µg/ml), pseudovirus neutralization [29]: 1.51 µg/mL; Neutralizing Antibody Assay: IC50; Virus/Ab Incubation 1 hour [38]: < 0.0025 mg/L; Neutralizing Antibody Assay: IC50; Virus/Ab Incubation 18 hour [38]: < 0.0025 mg/L |
| 4970_K22 (PGT-144) (antibody) | > 50 | 32.7 | > 50 | > 50 | > 50 | > 50 | 2.17 | 9.41 | > 50 | > 50 | 16.3 | > 50 | 7.41 | > 50 | > 50 | > 50 | 0.893 | > 50 | 10.3 | 0.29 | IC50 (µg/mL), pseudovirus neutralization [22]: 8.24 µg/mL; IC50 (µg/mL), pseudovirus neutralization [23]: > 50 µg/mL; IC50 (µg/mL), pseudovirus neutralization [24]: > 50 µg/mL |

Source: patent US20250320281A1
